This test addresses T1, human C1q (human, UniProt P02745 23-245; P02746 28-253; P02747 29-245).
T1 construct: also called first component of the classical complement cascade
Description: ELISA, antibody coated, C1q detected with rabbit anti-human C1q. The method, then:
In short, microtiter ELISA plates (Greiner, Germany) were coated overnight at RT with the test antibodies serially diluted from 10 μg/ml to 0.06 μg/ml in PBS. Plates were emptied and wells were blocked with 200 μl ELISA-diluent per well (0.1 M NaPO₄, 0.1 M NaCl, 0.1% gelatin and 0.05% Tween-20), at RT for 30 minutes. […] After washing the plates (3×) with PBST, wells were incubated with HRP-conjugated swine anti-rabbit IgG-Fc (DAKO, P0300, lot #069) diluted in ELISA diluent (1:2500, 100 μl/well, RT, 1 hour). Thereafter, plates were washed thrice and assays were developed with freshly prepared 1 mg/ml ABTS solution (ABTS: 2,2′-azino-bis[3-ethylbenzthiazoline-6-sulfonic acid]); 2 tablets of 5 mg in 10 ml ABTS buffer, Boehringer Mannheim, Ingelheim, Germany) at RT in the dark for 30 minutes. Absorbance was measured at 405 nm in an ELISA plate reader (Biotek Instruments Inc., Winooski, USA).
On the technique in general: An ELISA detects its analyte on a solid surface through an enzyme-linked reagent.

T1 sequence (P02745 23-245, chain 1 of 3): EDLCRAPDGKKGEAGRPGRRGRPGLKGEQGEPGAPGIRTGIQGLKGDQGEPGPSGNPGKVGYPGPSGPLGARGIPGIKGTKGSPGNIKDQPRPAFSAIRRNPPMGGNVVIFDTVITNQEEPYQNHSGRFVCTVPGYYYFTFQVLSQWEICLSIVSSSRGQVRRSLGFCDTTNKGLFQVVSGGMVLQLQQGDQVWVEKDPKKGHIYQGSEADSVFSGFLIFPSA
T1 sequence (P02746 28-253, chain 2 of 3): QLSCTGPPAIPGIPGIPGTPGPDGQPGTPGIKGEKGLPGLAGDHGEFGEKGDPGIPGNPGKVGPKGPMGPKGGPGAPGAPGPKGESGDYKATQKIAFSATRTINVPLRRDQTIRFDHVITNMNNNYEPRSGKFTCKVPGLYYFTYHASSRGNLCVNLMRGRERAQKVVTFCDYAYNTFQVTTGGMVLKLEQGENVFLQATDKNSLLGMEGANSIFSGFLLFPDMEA
T1 sequence (P02747 29-245, chain 3 of 3): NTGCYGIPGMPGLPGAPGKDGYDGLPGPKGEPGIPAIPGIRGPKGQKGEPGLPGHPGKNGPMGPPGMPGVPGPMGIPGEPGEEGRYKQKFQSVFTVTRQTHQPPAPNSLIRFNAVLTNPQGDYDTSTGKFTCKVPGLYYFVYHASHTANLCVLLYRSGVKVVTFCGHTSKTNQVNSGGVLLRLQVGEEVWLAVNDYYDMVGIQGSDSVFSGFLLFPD

B1: 7D8-HG (antibody)
heavy: EVQLVESGGGLVQPDRSLRLSCAASGFTFHDYAMHWVRQAPGKGLEWVSTISWNSGTIGYADSVKGRFTISRDNAKNSLYLQMNSLRAEDTALYYCAKDIQYGNYYYGMDVWGQGTTVTVSSASTKGPSVFPLAPCSRSTSESTAALGCLVKDYFPEPVTVSWNSGALTSGVHTFPAVLQSSGLYSLSSVVTVPSSSLGTKTYTCNVDHKPSNTKVDKRVAPEFLGGPSVFLFPPKPKDTLMISRTPEVTCVVVDVSQEDPEVQFNWYVDGVEVHNAKTKPREEQFNSTYRVVSVLTVLHQDWLNGKEYKCKVSNKGLPSSIEKTISKAKGQPREPQVYTLPPSQEEMTKNQVSLTCLVKGFYPSDIAVEWESNGQPENNYKTTPPVLDSDGSFFLYSRLTVDKSRWQEGNVFSCSVMHEALHNHYTQKSLSLSLGK
light: not shown
notes: Half-molecule of one heavy and one light chain (SDS-PAGE, MS 71520 Da); also called HuMab 7D8-HG; hingeless IgG4 anti-CD20
As to B1, the binding result is recorded as “no binding”.
